EC50, IC50 and IC50, LDL-uptake assay in HepG2 data for one substance are collected here from US20190233542A1.

The term EC50 denotes the concentration that produces a half-maximal response. High values mean weaker potency, low ones greater potency. A word on the IC50: it is the midpoint of a concentration-inhibition curve.

Assay [1] has as its target human PCSK9 (Proprotein Convertase Subtilisin/Kexin type 9) (human) (UniProt Q8NBP7). Briefly: binding ELISA on human PCSK9. On the technique in general: In an ELISA, binding on a coated surface is turned into a signal by an enzyme label.
Assay [2] addresses human PCSK9-mFc-biotin (human) (UniProt Q8NBP7). Briefly: competitive ELISA, blocking of PCSK9 binding to LDL-R.
The target of assay [3] is human PCSK9 (Proprotein Convertase Subtilisin/Kexin type 9) (human) (UniProt Q8NBP7). Briefly: cell-based or functional assay.

Take Repatha (antibody): in assay [1], the EC50 stood at 0.044 nM. The IC50 in assay [2] was 2.21 nM. For the same substance, the IC50, LDL-uptake assay in HepG2 in assay [3] came to 77.6 nM.
